Sequences and labels used below:
T1: C. elegans GluClβWT subunit (GLC-2) (C. elegans) (UniProt Q17328)
T1 sequence: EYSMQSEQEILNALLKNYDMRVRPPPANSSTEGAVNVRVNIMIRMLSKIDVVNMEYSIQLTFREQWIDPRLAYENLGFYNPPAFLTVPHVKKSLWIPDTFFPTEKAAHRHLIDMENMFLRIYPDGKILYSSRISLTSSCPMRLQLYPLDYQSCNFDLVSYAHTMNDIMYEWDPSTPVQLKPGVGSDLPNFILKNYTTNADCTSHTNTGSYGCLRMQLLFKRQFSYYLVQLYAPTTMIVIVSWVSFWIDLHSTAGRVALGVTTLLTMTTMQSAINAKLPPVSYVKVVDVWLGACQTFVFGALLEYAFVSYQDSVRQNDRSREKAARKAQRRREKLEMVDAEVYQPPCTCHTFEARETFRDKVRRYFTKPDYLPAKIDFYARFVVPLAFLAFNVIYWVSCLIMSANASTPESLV

B1: C. elegans GluClα (GLC-1) subunit, P192E (receptor)
chain: QQARTKSQDIFEDDNDNGTTTLESLARLTSPIHIPIEQPQTSDSKILAHLFTSGYDFRVRPPTDNGGPVVVSVNMLLRTISKIDVVNMEYSAQLTLRESWIDKRLSYGVKGDGQPDFVILTVGHQIWMPDTFFPNEKQAYKHTIDKPNVLIRIHNDGTVLYSVRISLVLSCEMYLQYYPMDVQQCSIDLASYAYTTKDIEYLWKEHSPLQLKVGLSSSLPSFQLTNTSTTYCTSVTNTGIYSCLRTTIQLKREFSFYLLQLYIPSCMLVIVSWVSFWFDRTAIPARVTLGVTTLLTMTAQSAGINSQLPPVSYIKAIDVWIGACMTFIFCALLEFALVNHIANKQGVERKARTEREKAEIPLLQNLHNDVPTKVFNQEEKVRTVPLNRRQMNSFLNLLETKTEWNDISKRVDLISRALFPVLFFVFNILYWSRFGQQNVLF
B2: C. elegans GluClα (GLC-1) subunit, E273R (receptor)
chain: QQARTKSQDIFEDDNDNGTTTLESLARLTSPIHIPIEQPQTSDSKILAHLFTSGYDFRVRPPTDNGGPVVVSVNMLLRTISKIDVVNMEYSAQLTLRESWIDKRLSYGVKGDGQPDFVILTVGHQIWMPDTFFPNEKQAYKHTIDKPNVLIRIHNDGTVLYSVRISLVLSCPMYLQYYPMDVQQCSIDLASYAYTTKDIEYLWKEHSPLQLKVGLSSSLPSFQLTNTSTTYCTSVTNTGIYSCLRTTIQLKRRFSFYLLQLYIPSCMLVIVSWVSFWFDRTAIPARVTLGVTTLLTMTAQSAGINSQLPPVSYIKAIDVWIGACMTFIFCALLEFALVNHIANKQGVERKARTEREKAEIPLLQNLHNDVPTKVFNQEEKVRTVPLNRRQMNSFLNLLETKTEWNDISKRVDLISRALFPVLFFVFNILYWSRFGQQNVLF
B3: C. elegans GluClα (GLC-1) subunit, F276A (receptor)
chain: QQARTKSQDIFEDDNDNGTTTLESLARLTSPIHIPIEQPQTSDSKILAHLFTSGYDFRVRPPTDNGGPVVVSVNMLLRTISKIDVVNMEYSAQLTLRESWIDKRLSYGVKGDGQPDFVILTVGHQIWMPDTFFPNEKQAYKHTIDKPNVLIRIHNDGTVLYSVRISLVLSCPMYLQYYPMDVQQCSIDLASYAYTTKDIEYLWKEHSPLQLKVGLSSSLPSFQLTNTSTTYCTSVTNTGIYSCLRTTIQLKREFSAYLLQLYIPSCMLVIVSWVSFWFDRTAIPARVTLGVTTLLTMTAQSAGINSQLPPVSYIKAIDVWIGACMTFIFCALLEFALVNHIANKQGVERKARTEREKAEIPLLQNLHNDVPTKVFNQEEKVRTVPLNRRQMNSFLNLLETKTEWNDISKRVDLISRALFPVLFFVFNILYWSRFGQQNVLF
B4: C. elegans GluClα (GLC-1) subunit, F276W (receptor)
chain: QQARTKSQDIFEDDNDNGTTTLESLARLTSPIHIPIEQPQTSDSKILAHLFTSGYDFRVRPPTDNGGPVVVSVNMLLRTISKIDVVNMEYSAQLTLRESWIDKRLSYGVKGDGQPDFVILTVGHQIWMPDTFFPNEKQAYKHTIDKPNVLIRIHNDGTVLYSVRISLVLSCPMYLQYYPMDVQQCSIDLASYAYTTKDIEYLWKEHSPLQLKVGLSSSLPSFQLTNTSTTYCTSVTNTGIYSCLRTTIQLKREFSWYLLQLYIPSCMLVIVSWVSFWFDRTAIPARVTLGVTTLLTMTAQSAGINSQLPPVSYIKAIDVWIGACMTFIFCALLEFALVNHIANKQGVERKARTEREKAEIPLLQNLHNDVPTKVFNQEEKVRTVPLNRRQMNSFLNLLETKTEWNDISKRVDLISRALFPVLFFVFNILYWSRFGQQNVLF
B5: C. elegans GluClα (GLC-1) subunit, Y194R (receptor)
chain: QQARTKSQDIFEDDNDNGTTTLESLARLTSPIHIPIEQPQTSDSKILAHLFTSGYDFRVRPPTDNGGPVVVSVNMLLRTISKIDVVNMEYSAQLTLRESWIDKRLSYGVKGDGQPDFVILTVGHQIWMPDTFFPNEKQAYKHTIDKPNVLIRIHNDGTVLYSVRISLVLSCPMRLQYYPMDVQQCSIDLASYAYTTKDIEYLWKEHSPLQLKVGLSSSLPSFQLTNTSTTYCTSVTNTGIYSCLRTTIQLKREFSFYLLQLYIPSCMLVIVSWVSFWFDRTAIPARVTLGVTTLLTMTAQSAGINSQLPPVSYIKAIDVWIGACMTFIFCALLEFALVNHIANKQGVERKARTEREKAEIPLLQNLHNDVPTKVFNQEEKVRTVPLNRRQMNSFLNLLETKTEWNDISKRVDLISRALFPVLFFVFNILYWSRFGQQNVLF
B6: C. elegans GluClα (GLC-1) subunit, P192Y (receptor)
chain: QQARTKSQDIFEDDNDNGTTTLESLARLTSPIHIPIEQPQTSDSKILAHLFTSGYDFRVRPPTDNGGPVVVSVNMLLRTISKIDVVNMEYSAQLTLRESWIDKRLSYGVKGDGQPDFVILTVGHQIWMPDTFFPNEKQAYKHTIDKPNVLIRIHNDGTVLYSVRISLVLSCYMYLQYYPMDVQQCSIDLASYAYTTKDIEYLWKEHSPLQLKVGLSSSLPSFQLTNTSTTYCTSVTNTGIYSCLRTTIQLKREFSFYLLQLYIPSCMLVIVSWVSFWFDRTAIPARVTLGVTTLLTMTAQSAGINSQLPPVSYIKAIDVWIGACMTFIFCALLEFALVNHIANKQGVERKARTEREKAEIPLLQNLHNDVPTKVFNQEEKVRTVPLNRRQMNSFLNLLETKTEWNDISKRVDLISRALFPVLFFVFNILYWSRFGQQNVLF
B7: C. elegans GluClα (GLC-1) subunit, P192M (receptor)
chain: QQARTKSQDIFEDDNDNGTTTLESLARLTSPIHIPIEQPQTSDSKILAHLFTSGYDFRVRPPTDNGGPVVVSVNMLLRTISKIDVVNMEYSAQLTLRESWIDKRLSYGVKGDGQPDFVILTVGHQIWMPDTFFPNEKQAYKHTIDKPNVLIRIHNDGTVLYSVRISLVLSCMMYLQYYPMDVQQCSIDLASYAYTTKDIEYLWKEHSPLQLKVGLSSSLPSFQLTNTSTTYCTSVTNTGIYSCLRTTIQLKREFSFYLLQLYIPSCMLVIVSWVSFWFDRTAIPARVTLGVTTLLTMTAQSAGINSQLPPVSYIKAIDVWIGACMTFIFCALLEFALVNHIANKQGVERKARTEREKAEIPLLQNLHNDVPTKVFNQEEKVRTVPLNRRQMNSFLNLLETKTEWNDISKRVDLISRALFPVLFFVFNILYWSRFGQQNVLF
B8: C. elegans GluClα (GLC-1) subunit, SSS→GSD (positions 236–238) (receptor)
chain: QQARTKSQDIFEDDNDNGTTTLESLARLTSPIHIPIEQPQTSDSKILAHLFTSGYDFRVRPPTDNGGPVVVSVNMLLRTISKIDVVNMEYSAQLTLRESWIDKRLSYGVKGDGQPDFVILTVGHQIWMPDTFFPNEKQAYKHTIDKPNVLIRIHNDGTVLYSVRISLVLSCPMYLQYYPMDVQQCSIDLASYAYTTKDIEYLWKEHSPLQLKVGLGSDLPSFQLTNTSTTYCTSVTNTGIYSCLRTTIQLKREFSFYLLQLYIPSCMLVIVSWVSFWFDRTAIPARVTLGVTTLLTMTAQSAGINSQLPPVSYIKAIDVWIGACMTFIFCALLEFALVNHIANKQGVERKARTEREKAEIPLLQNLHNDVPTKVFNQEEKVRTVPLNRRQMNSFLNLLETKTEWNDISKRVDLISRALFPVLFFVFNILYWSRFGQQNVLF

This assay has as its target T1, C. elegans GluClβWT subunit (GLC-2) (C. elegans).
B1 yielded a whole-cell current amplitude in response to the Glu-EC50 concentration, CHO cells co-transfected with both subunits, +60 mV of 3.1 nA.

B2 came in with a whole-cell current amplitude in response to the Glu-EC50 concentration, CHO cells co-transfected with both subunits, +60 mV of 2.2 nA.

Take B3: the whole-cell current amplitude in response to the Glu-EC50 concentration, CHO cells co-transfected with both subunits, +60 mV amounted to 3.1 nA.

The molecule B4 came in with a whole-cell current amplitude in response to the Glu-EC50 concentration, CHO cells co-transfected with both subunits, +60 mV of 3 nA.

The molecule B5 yielded a whole-cell current amplitude in response to the Glu-EC50 concentration, CHO cells co-transfected with both subunits, +60 mV of 5.9 nA.

On to B6, for which the whole-cell current amplitude in response to the Glu-EC50 concentration, CHO cells co-transfected with both subunits, +60 mV came out at 2.1 nA.

Regarding B7, the whole-cell current amplitude in response to the Glu-EC50 concentration, CHO cells co-transfected with both subunits, +60 mV is 3.2 nA.

Regarding B8, the whole-cell current amplitude in response to the Glu-EC50 concentration, CHO cells co-transfected with both subunits, +60 mV is 2.9 nA.
